According to US20250243290A1:
Several values for one entry are separate records, joined by “and”; a condition that tells them apart may be missing. Equal values may be shown once.

Experiments:
[1] = target: 2LS2…2RPGW; assay: peptide-array ELISA
[2] = target: 2…2RPG; assay: peptide-array ELISA
[3] = target: 2…2RP; assay: peptide-array ELISA
[4] = target: CEQNRI2T2RPGWY2…2TSTSPTRC; assay: peptide-array ELISA
[5] = target: E2LS2…2RP; assay: peptide-array ELISA
[6] = target: LS2…2RPG; assay: peptide-array ELISA
[7] = target: LS2…2RP; assay: peptide-array ELISA
[8] = target: LWNWVPE2…2T; assay: peptide-array ELISA
[9] = target: LWNWVPE2…2; assay: peptide-array ELISA
[10] = target: LWNWVPE2…; assay: peptide-array ELISA
[11] = target: PE2LS2…2RP; assay: peptide-array ELISA
[12] = target: QEGCRL2…; assay: peptide-array ELISA
[13] = target: S2…2RPG; assay: peptide-array ELISA
[14] = target: S2…2RP; assay: peptide-array ELISA
[15] = target: VPE2LS2…2RP; assay: peptide-array ELISA
[16] = target: VPE2LS2…2TREQNRIC; assay: peptide-array ELISA
[17] = target: VPE2LSCGSR2…2; assay: peptide-array ELISA
[18] = target: WNWVPE2…2; assay: peptide-array ELISA
[19] = target: …2RP; assay: peptide-array ELISA
[20] = target: …2…2RP; assay: peptide-array ELISA
[21] = target: 2LSCGSR2…2; assay: peptide-array ELISA [Con't]
[22] = target: 2RLCAPLRK2…2APGTFSN; assay: peptide-array ELISA [Con't]
[23] = target: C2…22SK2SPGQHC; assay: peptide-array ELISA [Con't]
[24] = target: CAPLRK2…2RLC; assay: peptide-array ELISA [Con't]
[25] = target: CDQVETQA2…2TSTSPTRC; assay: peptide-array ELISA [Con't]
[26] = target: CG2RL2APLRK2RPGFCQA2TREQNRI2T2RPC; assay: peptide-array ELISA [Con't]
[27] = target: CG2RL2APLRK2…2RLC; assay: peptide-array ELISA [Con't]
[28] = target: CQA2TREQNRI2T2…2TSTSPTRC; assay: peptide-array ELISA [Con't]
[29] = target: DVV2…; assay: peptide-array ELISA [Con't]
[30] = target: E2LS2…2RPGW; assay: peptide-array ELISA [Con't]
[31] = target: E2LS2…2…; assay: peptide-array ELISA [Con't]
[32] = target: E2LSCGSR2…2T; assay: peptide-array ELISA [Con't]
[33] = target: E2LSCGSR2…2; assay: peptide-array ELISA [Con't]
[34] = target: EGCRL2…; assay: peptide-array ELISA [Con't]
[35] = target: LCAPLRK2…2APGTFSN; assay: peptide-array ELISA [Con't]
[36] = target: LS2…2TREQNRIC; assay: peptide-array ELISA [Con't]
[37] = target: LSCGSR2…2; assay: peptide-array ELISA [Con't]
[38] = target: LSKQEG2…2APGTFSN; assay: peptide-array ELISA [Con't]
[39] = target: LWNWVPE2…; assay: peptide-array ELISA [Con't]
[40] = target: NRI2…2R; assay: peptide-array ELISA [Con't]
[41] = target: NWVPE2…2; assay: peptide-array ELISA [Con't]
[42] = target: NWVPE2…; assay: peptide-array ELISA [Con't]
[43] = target: PE2LS2…2RPG; assay: peptide-array ELISA [Con't]
[44] = target: PE2LS2…2…2; assay: peptide-array ELISA [Con't]
[45] = target: PE2LSCGSR2…2T; assay: peptide-array ELISA [Con't]
[46] = target: QNRI2…2R; assay: peptide-array ELISA [Con't]
[47] = target: WNWVPE2…2T2; assay: peptide-array ELISA [Con't]
[48] = target: WY2…; assay: peptide-array ELISA [Con't]
[49] = target: Y2…2…; assay: peptide-array ELISA [Con't]
[50] = target: Y2…; assay: peptide-array ELISA [Con't]
[51] = target: …2AGGSGGL2…; assay: peptide-array ELISA [Con't]
[52] = target: …2GGSGGL2…; assay: peptide-array ELISA [Con't]
[53] = target: …2RPGW; assay: peptide-array ELISA [Con't]
[54] = target: …2RPG; assay: peptide-array ELISA [Con't]
[55] = target: …2…2RPGW; assay: peptide-array ELISA [Con't]
[56] = target: …2…2R; assay: peptide-array ELISA [Con't]
[57] = target: …2…2TSTSPTRC; assay: peptide-array ELISA [Con't]

Sequence of EGCRL2… (peptide, as listed by the source): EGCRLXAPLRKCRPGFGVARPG
Sequence of QEGCRL2… (peptide, as listed by the source): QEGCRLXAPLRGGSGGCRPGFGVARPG
Sequence of Y2… (peptide, as listed by the source): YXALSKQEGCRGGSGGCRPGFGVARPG
Sequence of NWVPE2… (peptide, as listed by the source): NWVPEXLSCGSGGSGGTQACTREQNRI
Sequence of …2RPG (peptide, as listed by the source): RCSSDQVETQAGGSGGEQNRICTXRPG
Sequence of WY2… (peptide, as listed by the source): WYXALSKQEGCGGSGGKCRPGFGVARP

agonistic TNFR2 antibody MR2-1
Raw luminescence data [1]: 366 | Raw luminescence data [2]: 389 | Raw luminescence data [3]: 510 | Raw luminescence data [4]: 413 | Raw luminescence data [5]: 418 | Raw luminescence data [6]: 433 | Raw luminescence data [7]: 584 | Raw luminescence data [8]: 467 | Raw luminescence data [9]: 525 | Raw luminescence data [10]: 400 | Raw luminescence data [11]: 483 | Raw luminescence data [12]: 428 | Raw luminescence data [13]: 385 | Raw luminescence data [14]: 392 | Raw luminescence data [15]: 410 | Raw luminescence data [16]: 399 | Raw luminescence data [17]: 365 | Raw luminescence data [18]: 403 | Raw luminescence data [19]: 435 and 433 | Raw luminescence data [20]: 459 | Raw luminescence data [21]: 251 | Raw luminescence data [22]: 245 | Raw luminescence data [23]: 263 | Raw luminescence data [24]: 227 | Raw luminescence data [25]: 251 | Raw luminescence data [26]: 244 | Raw luminescence data [27]: 252 | Raw luminescence data [28]: 274 | Raw luminescence data [29]: 243 | Raw luminescence data [30]: 233 | Raw luminescence data [31]: 233 | Raw luminescence data [32]: 225 | Raw luminescence data [33]: 262 | Raw luminescence data [34]: 239 | Raw luminescence data [35]: 262 | Raw luminescence data [36]: 232 | Raw luminescence data [37]: 274 | Raw luminescence data [38]: 247 | Raw luminescence data [39]: 260 | Raw luminescence data [40]: 229 | Raw luminescence data [41]: 258 | Raw luminescence data [42]: 229 | Raw luminescence data [43]: 277 | Raw luminescence data [44]: 262 | Raw luminescence data [45]: 275 | Raw luminescence data [46]: 242 | Raw luminescence data [47]: 247 | Raw luminescence data [48]: 254 | Raw luminescence data [49]: 245 | Raw luminescence data [50]: 256 | Raw luminescence data [51]: 254 | Raw luminescence data [52]: 250 | Raw luminescence data [53]: 276 and 272 | Raw luminescence data [54]: 257 | Raw luminescence data [55]: 270 | Raw luminescence data [56]: 225 | Raw luminescence data [57]: 267
